Experiment in all cases: holdup assay
Design in all cases: key: below the threshold = too weak to quantify, mostly under pKd 3.1 to 4

The target in assay [1] is Inadl_3, Q8NI35. The settings on record: plain residues with an end cap or a label only (N-terminal biotin on a linker: ttds).
The target in assay [2] is PARD3_3, Q8TEW0.
The target in assay [3] is GIPC2, Q8TF65.
The target of assay [4] is T1, SHANK1, Q9Y566.
T1 sequence (Q9Y566 658-767, limits assumed, looked up): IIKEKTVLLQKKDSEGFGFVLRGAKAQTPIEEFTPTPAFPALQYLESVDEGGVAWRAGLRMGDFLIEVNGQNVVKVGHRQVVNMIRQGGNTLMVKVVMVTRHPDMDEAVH
The settings on record: plain residues with an end cap or a label only (N-terminal biotin on a linker: ttds).

For assay [5], the target named is T2, LNX2_3, Q8N448.
T2 sequence (Q8N448 463-564, limits assumed, looked up): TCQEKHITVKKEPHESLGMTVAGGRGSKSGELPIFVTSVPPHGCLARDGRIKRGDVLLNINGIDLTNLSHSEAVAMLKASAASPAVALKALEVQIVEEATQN
The settings on record: plain residues with an end cap or a label only (N-terminal biotin on a linker: ttds).

Assay [6] has as its target DLG4_2, P78352.
Assay [7] has as its target T3, SNTA1, Q13424.
T3 sequence (Q13424 82-180, limits assumed, looked up): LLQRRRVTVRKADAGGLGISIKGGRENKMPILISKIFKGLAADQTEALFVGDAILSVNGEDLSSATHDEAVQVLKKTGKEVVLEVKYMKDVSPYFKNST
The settings on record: plain residues with an end cap or a label only (N-terminal biotin on a linker: ttds).

Assay [8] concerns the target T4, RADIL, Q96JH8.
T4 sequence (Q96JH8 971-1071, limits assumed, looked up): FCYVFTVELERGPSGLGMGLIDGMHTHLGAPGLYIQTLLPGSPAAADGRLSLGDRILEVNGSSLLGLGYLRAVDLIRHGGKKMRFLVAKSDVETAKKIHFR
The settings on record: plain residues with an end cap or a label only (N-terminal biotin on a linker: ttds).

Assay [9] has as its target GRASP, Q7Z6J2.
Assay [10] concerns the target DLG1_1, Q12959. The settings on record: plain residues with an end cap or a label only (N-terminal biotin on a linker: ttds).
In assay [11] the target is GRIP2_6, Q9C0E4.
Assay [12] addresses T5, APBA3_1, O96018.
T5 sequence (O96018 389-490, limits assumed, looked up): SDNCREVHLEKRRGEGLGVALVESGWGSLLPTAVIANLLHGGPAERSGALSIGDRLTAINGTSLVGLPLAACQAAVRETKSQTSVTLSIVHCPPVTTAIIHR
The conditions noted are these: plain residues with an end cap or a label only (N-terminal biotin on a linker: ttds).

In assay [13] the target is GRIP2_7, Q9C0E4. The settings on record: plain residues with an end cap or a label only (N-terminal biotin on a linker: ttds).
In assay [14] the target is DLG1_3, Q12959.
Assay [15] deals with PICK1, Q9NRD5.
For assay [16], the target named is Inadl_1, Q8NI35. The settings on record: plain residues with an end cap or a label only (N-terminal biotin on a linker: ttds).
Assay [17] concerns the target T6, GRIP1_7, Q9Y3R0.
T6 sequence (Q9Y3R0 999-1096, limits assumed, looked up): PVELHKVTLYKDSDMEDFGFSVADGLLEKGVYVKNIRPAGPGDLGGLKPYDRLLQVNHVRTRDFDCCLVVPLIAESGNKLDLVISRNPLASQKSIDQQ

The target in assay [18] is DLG2_2, Q15700.
In assay [19] the target is T7, MPDZ_12, O75970.
T7 sequence (O75970 1857-1958, limits assumed, looked up): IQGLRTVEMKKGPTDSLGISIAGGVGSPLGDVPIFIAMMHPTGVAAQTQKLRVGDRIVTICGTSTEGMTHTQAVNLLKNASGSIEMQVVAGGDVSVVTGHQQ

Assay [20] concerns the target T8, LRRC7, Q96NW7.
T8 sequence (Q96NW7 1440-1537, limits assumed, looked up): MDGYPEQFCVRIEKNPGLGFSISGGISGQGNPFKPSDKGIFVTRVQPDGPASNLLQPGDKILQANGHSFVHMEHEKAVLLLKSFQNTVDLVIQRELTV

The target in assay [21] is T9, PDZD2_2, O15018.
T9 sequence (O15018 329-429, limits assumed, looked up): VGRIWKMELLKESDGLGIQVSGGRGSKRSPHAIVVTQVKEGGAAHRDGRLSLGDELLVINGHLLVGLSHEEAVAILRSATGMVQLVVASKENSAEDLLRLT

Assay [22] addresses NOS1, P29475.
In assay [23] the target is LIMK2, P53671.
The target in assay [24] is FRMPD2_1, Q68DX3.
The target in assay [25] is FRMPD4, Q14CM0. The conditions noted are these: plain residues with an end cap or a label only (N-terminal biotin on a linker: ttds).
For assay [26], the target named is DLG1_2, Q12959.
Assay [27] has as its target T10, GRIP1_2, Q9Y3R0.
T10 sequence (Q9Y3R0 145-248, limits assumed, looked up): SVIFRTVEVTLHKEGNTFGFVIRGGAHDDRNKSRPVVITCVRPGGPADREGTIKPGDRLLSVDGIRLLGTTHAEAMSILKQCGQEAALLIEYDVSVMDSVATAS
The conditions noted are these: plain residues with an end cap or a label only (N-terminal biotin on a linker: ttds).

In assay [28] the target is SNX27, Q96L92.
The mark [29] stands for this setting: plain residues with an end cap or a label only (N-terminal biotin on a linker: ttds).
[30] abbreviates: plain residues with an end cap or a label only (N-terminal biotin on a linker: ado-ado).

GRIP2_6, Q9C0E4, sequence (Q9C0E4 648-740): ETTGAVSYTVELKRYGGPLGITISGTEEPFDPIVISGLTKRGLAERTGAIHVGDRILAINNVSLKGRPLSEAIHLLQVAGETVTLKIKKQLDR
FRMPD4, Q14CM0, sequence (Q14CM0 67-160): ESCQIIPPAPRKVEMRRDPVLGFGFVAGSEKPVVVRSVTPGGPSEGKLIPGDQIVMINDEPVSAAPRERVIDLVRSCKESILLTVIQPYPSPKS
PARD3_3, Q8TEW0, sequence (Q8TEW0 582-685): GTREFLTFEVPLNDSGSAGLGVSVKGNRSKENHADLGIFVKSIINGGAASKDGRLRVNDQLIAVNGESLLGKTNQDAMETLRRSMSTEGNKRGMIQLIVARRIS
GRIP2_7, Q9C0E4, sequence (Q9C0E4 934-1023): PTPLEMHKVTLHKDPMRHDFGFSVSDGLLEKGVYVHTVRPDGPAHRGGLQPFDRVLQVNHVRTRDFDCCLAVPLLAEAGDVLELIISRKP
GRASP, Q7Z6J2, sequence (Q7Z6J2 96-193): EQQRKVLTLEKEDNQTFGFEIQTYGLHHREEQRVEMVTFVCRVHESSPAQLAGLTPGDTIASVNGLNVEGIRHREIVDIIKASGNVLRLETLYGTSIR
DLG2_2, Q15700, sequence (Q15700 189-283): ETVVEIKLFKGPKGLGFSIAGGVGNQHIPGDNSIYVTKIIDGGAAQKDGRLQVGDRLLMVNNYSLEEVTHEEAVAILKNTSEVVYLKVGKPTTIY
DLG4_2, P78352, sequence (P78352 155-259): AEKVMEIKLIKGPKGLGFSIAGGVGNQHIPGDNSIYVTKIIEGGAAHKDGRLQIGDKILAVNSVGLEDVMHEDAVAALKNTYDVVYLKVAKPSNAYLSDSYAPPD
Inadl_1, Q8NI35, sequence (Q8NI35 113-229): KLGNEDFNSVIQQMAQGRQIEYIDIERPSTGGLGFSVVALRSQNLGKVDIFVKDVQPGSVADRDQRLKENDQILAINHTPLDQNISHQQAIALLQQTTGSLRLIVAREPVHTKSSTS
FRMPD2_1, Q68DX3, sequence (Q68DX3 770-861): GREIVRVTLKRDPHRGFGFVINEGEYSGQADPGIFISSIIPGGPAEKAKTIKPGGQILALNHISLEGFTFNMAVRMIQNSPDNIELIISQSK
NOS1, P29475, sequence (P29475 9-101): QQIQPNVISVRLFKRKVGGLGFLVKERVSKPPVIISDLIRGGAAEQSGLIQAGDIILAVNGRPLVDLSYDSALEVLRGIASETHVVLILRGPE
GIPC2, Q8TF65, sequence (Q8TF65 112-203): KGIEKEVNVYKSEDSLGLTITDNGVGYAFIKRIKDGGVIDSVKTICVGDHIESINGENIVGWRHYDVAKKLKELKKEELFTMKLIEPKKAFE
Inadl_3, Q8NI35, sequence (Q8NI35 359-469): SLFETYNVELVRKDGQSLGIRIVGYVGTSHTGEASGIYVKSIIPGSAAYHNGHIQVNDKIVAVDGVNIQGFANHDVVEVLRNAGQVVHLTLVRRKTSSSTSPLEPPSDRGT
LIMK2, P53671, sequence (P53671 143-248): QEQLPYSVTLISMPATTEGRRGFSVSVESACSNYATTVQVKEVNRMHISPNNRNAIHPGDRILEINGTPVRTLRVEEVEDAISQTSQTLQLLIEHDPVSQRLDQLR
PICK1, Q9NRD5, sequence (Q9NRD5 17-115): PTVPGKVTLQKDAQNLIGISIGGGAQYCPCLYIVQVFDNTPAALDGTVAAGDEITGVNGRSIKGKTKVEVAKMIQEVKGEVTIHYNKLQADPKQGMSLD

By pKd is commonly meant the Kd on a negative log10 scale, so that one unit is a factor of ten. Take RSLEEEESQL [GRASP, Q7Z6J2]: the pKd entry was “below the threshold” in assay [1]; 4.13 in assay [2] (setting [29]); 4.17 in assay [3] (setting [29]); 5.1 in assay [4]; “below the threshold” in assay [5]; 3.84 in [6] (setting [29]). Further, the pKd entry in [7] was “below the threshold”; in assay [8] it was 3.53; in assay [9] (setting [29]), 3.99; in assay [10], “below the threshold”; in assay [11] (setting [29]) it was 3.64; in assay [12] it was “below the threshold”. For the same molecule, the pKd result was “below the threshold” in assay [13]; 4.36 in [14] (setting [29]); 3.59 in assay [15] (setting [29]); “below the threshold” in assay [16]; “below the threshold” in assay [17] (setting [29]); “below the threshold” in [18] (setting [29]). Also, the pKd entry in [19] (setting [29]) was “below the threshold”; in assay [20] (setting [29]), “below the threshold”; in [21] (setting [29]), 3.98; in assay [22] (setting [29]), 3.6; in assay [23] (setting [29]), “below the threshold”; in assay [24] (setting [29]), “below the threshold”. Moreover, the pKd was 4.48 in [25], “below the threshold” in assay [26] (setting [29]), “below the threshold” in [27] and 5.69 in assay [28] (setting [29]).
KSRVAFFEEL [NF2, P35240]: the pKd was 3.72 in assay [2] (setting [30]); 3.48 in [3] (setting [30]); 3.78 in assay [6] (setting [30]); 3.77 in assay [11] (setting [30]); 3.82 in assay [14] (setting [30]); 3.49 in assay [17] (setting [30]). In addition, the pKd was found to be 3.51 in assay [18] (setting [30]); 3.5 in [20] (setting [30]); 3.71 in assay [21] (setting [30]); 3.58 in [22] (setting [30]); 3.5 in assay [26] (setting [30]); 3.7 in [28] (setting [30]).
In the case of SRPQRTQTQV [HPV67-E6, A4U7F2], the pKd result in [1] is “below the threshold”; in assay [2] (setting [29]) it was “below the threshold”; in [3] (setting [29]), “below the threshold”; in [4] it was “below the threshold”; in assay [5], “below the threshold”; in assay [6] (setting [29]), 4.96. The pKd in [7] was 3.94; in assay [8] it was “below the threshold”; in [9] (setting [29]), “below the threshold”; in [10] it was 4.52; in [11] (setting [29]), “below the threshold”; in assay [12], “below the threshold”. Besides, the pKd result is “below the threshold” in [13]; 4.13 in assay [14] (setting [29]); “below the threshold” in assay [15] (setting [29]); “below the threshold” in [16]; “below the threshold” in assay [17] (setting [29]); 4.81 in assay [18] (setting [29]). The pKd result in assay [19] (setting [29]) is “below the threshold”; in assay [20] (setting [29]), “below the threshold”; in assay [21] (setting [29]), 3.77; in assay [22] (setting [29]), 3.81; in assay [23] (setting [29]), “below the threshold”; in assay [24] (setting [29]), 3.79. The pKd result was “below the threshold” in [25], 5.01 in assay [26] (setting [29]), “below the threshold” in assay [27] and 3.98 in assay [28] (setting [29]).
Take SVWLRKETRV [CYSLTR2, Q9NS75]: the pKd result in assay [1] was “below the threshold”; in assay [2] (setting [29]), 3.46; in [3] (setting [29]), “below the threshold”; in [4] it was 3.51; in assay [5], “below the threshold”; in assay [6] (setting [29]) it was 5.38. Further, the negative-log Kd (pKd) is 5.41 in assay [7]; 3.7 in assay [8]; “below the threshold” in assay [9] (setting [29]); 5.14 in assay [10]; “below the threshold” in [11] (setting [29]); “below the threshold” in assay [12]. Moreover, the pKd entry in assay [13] is “below the threshold”; in assay [14] (setting [29]), 5.57; in assay [15] (setting [29]), 3.42; in assay [16] it was “below the threshold”; in assay [17] (setting [29]) it was 3.77; in assay [18] (setting [29]), 5.24. Further, the negative-log Kd (pKd) result in assay [19] (setting [29]) was “below the threshold”; in assay [20] (setting [29]) it was 3.65; in assay [21] (setting [29]), 3.8; in [22] (setting [29]), 3.85; in [23] (setting [29]), “below the threshold”; in [24] (setting [29]), 4.15. The negative logarithm of the Kd (pKd) result in assay [25] is “below the threshold”; in assay [26] (setting [29]), 5.78; in assay [27], “below the threshold”; in assay [28] (setting [29]), 4.95.
Turning to KRPEMTSSSV [MUC3B, MUC3A, Q02505;Q9H195], the pKd is 4 in assay [9] (setting [30]); 2.09 in assay [15] (setting [30]); “below the threshold” in [19] (setting [30]); 5.11 in assay [21] (setting [30]); “below the threshold” in assay [22] (setting [30]); “below the threshold” in assay [23] (setting [30]). Further, the pKd result in assay [24] (setting [30]) is “below the threshold”; in assay [26] (setting [30]), 4.06; in [28] (setting [30]) it was 5.03.

For the origin of these results see PMC9482650, “Quantitative fragmentomics allow affinity mapping of interactomes” (Nature Communications, 2022).
